Experimental data published in US20190359666A1.

Key:
nrgECD = nrgECD (UniProt Q02297); experiment: Biacore SPR, immobilised nrgECD
nrgEGF = nrgEGF (UniProt Q02297); experiment: Biacore SPR
nrgbx = nrgbx (UniProt Q02297); experiment: cell-based or functional assay
Sequence of nrgbx (Q02297 other isoform, or with tags, fused parts or gaps limits assumed): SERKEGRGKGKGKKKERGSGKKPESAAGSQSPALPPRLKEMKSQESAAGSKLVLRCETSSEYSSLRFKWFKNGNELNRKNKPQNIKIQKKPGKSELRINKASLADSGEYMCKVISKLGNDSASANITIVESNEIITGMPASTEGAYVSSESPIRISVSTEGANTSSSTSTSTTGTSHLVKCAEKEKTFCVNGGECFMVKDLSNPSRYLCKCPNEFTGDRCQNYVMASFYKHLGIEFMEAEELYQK

Sequence of IGFBP3-Fc-ErbB4 (Fc fusion) (chain): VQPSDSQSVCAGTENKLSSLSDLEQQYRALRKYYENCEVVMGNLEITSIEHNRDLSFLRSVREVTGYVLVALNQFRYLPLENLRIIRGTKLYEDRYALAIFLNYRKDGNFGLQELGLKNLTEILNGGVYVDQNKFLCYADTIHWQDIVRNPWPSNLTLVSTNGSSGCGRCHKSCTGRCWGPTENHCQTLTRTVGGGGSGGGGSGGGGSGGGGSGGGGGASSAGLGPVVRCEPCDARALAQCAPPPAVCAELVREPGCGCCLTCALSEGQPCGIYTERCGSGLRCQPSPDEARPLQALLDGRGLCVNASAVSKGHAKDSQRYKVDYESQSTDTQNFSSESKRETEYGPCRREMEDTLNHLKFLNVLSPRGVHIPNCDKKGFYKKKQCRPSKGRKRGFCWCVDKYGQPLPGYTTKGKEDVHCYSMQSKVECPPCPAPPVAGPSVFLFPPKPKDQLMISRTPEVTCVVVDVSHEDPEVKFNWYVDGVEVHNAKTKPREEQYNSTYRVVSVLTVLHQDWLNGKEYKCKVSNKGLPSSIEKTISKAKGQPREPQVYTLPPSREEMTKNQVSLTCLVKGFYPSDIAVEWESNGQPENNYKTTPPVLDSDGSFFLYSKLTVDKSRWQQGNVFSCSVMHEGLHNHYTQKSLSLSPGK
Sequence of IGFBP3-Fc-VEGF-ErbB4 (Fc fusion) (chain): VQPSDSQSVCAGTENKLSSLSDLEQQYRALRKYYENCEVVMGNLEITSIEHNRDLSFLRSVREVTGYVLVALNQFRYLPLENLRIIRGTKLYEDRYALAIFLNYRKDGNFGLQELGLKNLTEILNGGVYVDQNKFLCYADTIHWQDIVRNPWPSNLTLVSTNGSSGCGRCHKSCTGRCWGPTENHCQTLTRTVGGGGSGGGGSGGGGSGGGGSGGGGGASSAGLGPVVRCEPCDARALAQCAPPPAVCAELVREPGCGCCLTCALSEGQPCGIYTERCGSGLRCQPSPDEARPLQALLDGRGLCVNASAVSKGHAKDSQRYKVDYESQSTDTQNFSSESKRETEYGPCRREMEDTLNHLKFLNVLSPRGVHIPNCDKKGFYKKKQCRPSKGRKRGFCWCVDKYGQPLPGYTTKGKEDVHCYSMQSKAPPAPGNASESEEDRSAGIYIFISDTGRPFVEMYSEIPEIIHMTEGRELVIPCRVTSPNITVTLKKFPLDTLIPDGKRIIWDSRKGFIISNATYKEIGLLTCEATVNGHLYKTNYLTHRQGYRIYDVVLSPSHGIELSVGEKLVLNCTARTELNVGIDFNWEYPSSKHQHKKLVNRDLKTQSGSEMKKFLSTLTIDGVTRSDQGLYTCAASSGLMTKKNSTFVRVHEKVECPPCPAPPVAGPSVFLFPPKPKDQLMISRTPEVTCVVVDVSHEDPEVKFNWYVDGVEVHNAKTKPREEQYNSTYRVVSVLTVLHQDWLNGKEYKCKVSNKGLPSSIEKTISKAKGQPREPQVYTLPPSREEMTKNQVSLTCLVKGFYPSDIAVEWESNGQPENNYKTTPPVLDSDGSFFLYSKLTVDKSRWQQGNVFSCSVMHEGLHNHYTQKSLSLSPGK
Sequence of IGFBP3-Fc-VEGF (Fc fusion) (chain): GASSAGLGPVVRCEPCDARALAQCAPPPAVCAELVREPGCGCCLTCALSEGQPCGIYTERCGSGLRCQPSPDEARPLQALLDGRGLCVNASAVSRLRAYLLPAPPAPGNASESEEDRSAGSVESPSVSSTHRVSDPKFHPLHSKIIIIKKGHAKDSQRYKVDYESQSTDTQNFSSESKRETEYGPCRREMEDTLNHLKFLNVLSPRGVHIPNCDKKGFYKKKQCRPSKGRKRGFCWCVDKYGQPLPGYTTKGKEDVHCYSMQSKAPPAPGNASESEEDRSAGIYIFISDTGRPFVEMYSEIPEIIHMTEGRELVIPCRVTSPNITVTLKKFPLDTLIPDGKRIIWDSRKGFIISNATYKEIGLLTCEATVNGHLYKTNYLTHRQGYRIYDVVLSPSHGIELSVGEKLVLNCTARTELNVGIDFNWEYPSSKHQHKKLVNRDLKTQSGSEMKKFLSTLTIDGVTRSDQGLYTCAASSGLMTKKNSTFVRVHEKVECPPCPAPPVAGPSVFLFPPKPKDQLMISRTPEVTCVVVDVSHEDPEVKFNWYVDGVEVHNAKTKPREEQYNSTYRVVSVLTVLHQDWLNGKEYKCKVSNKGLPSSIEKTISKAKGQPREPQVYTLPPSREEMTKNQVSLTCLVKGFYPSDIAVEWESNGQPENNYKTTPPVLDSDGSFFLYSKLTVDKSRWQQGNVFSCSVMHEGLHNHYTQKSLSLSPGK
Sequence of IGFBP3-Fc (Fc fusion) (chain): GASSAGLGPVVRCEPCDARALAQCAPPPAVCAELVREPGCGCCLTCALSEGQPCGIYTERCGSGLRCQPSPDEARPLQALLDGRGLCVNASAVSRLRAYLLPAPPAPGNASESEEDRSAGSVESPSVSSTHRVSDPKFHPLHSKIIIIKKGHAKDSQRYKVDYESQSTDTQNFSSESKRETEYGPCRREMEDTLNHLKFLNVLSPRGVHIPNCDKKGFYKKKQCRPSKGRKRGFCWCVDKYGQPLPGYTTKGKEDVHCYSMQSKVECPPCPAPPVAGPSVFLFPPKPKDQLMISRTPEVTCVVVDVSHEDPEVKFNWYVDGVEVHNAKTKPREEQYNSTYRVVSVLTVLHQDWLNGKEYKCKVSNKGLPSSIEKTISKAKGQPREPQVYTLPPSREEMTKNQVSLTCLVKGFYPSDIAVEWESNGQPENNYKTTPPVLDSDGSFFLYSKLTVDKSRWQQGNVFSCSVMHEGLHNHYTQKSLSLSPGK

Substance | Kd (nrgECD) [nM] | Kd (nrgEGF) [nM] | IC50 in inhibiting neuregulin-induced proliferation (nrgbx) [nM]
IGFBP3-Fc (Fc fusion) | 5.3 | – | –
IGFBP3-Fc-ErbB4 (Fc fusion) | 0.004 | 6 | –
IGFBP3-Fc-VEGF (Fc fusion) | 0.18 | – | –
IGFBP3-Fc-VEGF-ErbB4 (Fc fusion) | 0.00011 | 11 | –
chimera erbB4-A (Fc fusion) | – | – | 14
